Test results published in doi:10.1101/2024.12.31.630886.

What was measured:
[1] = target: IatT, GCN5-related N-acetyltransferase (GNAT) of the iat lasso peptide BGC (Actinosynnema mirum DSM 43827); assay: cryo-EM structure
[2] = target: IatT, GCN5-related N-acetyltransferase (GNAT) of the iat lasso peptide BGC (Actinosynnema mirum DSM 43827); assay: ITC

Row | stoichiometry N [1] | stoichiometry N (molar equivalent) [2] | Substance
1 | 14 | – | IatT, GCN5-related N-acetyltransferase (GNAT) of the iat lasso peptide BGC (enzyme)
2 | – | 1 | mirusin B (compound 2), monoacetylated lasso peptide
3 | – | 1 | mirusin C (compound 3), diacetylated lasso peptide
